From publication PMC5308906 (2016) come the findings set out here.

No end group written: not given here.

In the assay the target is T1, ψIRS1-Cargo V5 (Homo sapiens, UniProt Q05655, not fully specified).
T1 chain: EKARLSYS
In words: AGILE Dev Kit binding assay.

The Kd is the constant that tells how readily two partners part at equilibrium. Low readings indicate tighter binding, high ones weaker binding.

B1: θPKC (protein)
chain: MSPFLRIGLSNFDCGSCQSCQGEAVNPYCAVLVKEYVESENGQMYIQKKPTMYPPWDSTFDAHINKGRVMQIIVKGKNVDLISETTVELYSLAERCRKNNGKTEIWLELKPQGRMLMNARYFLEMSDTKDMNEFETEGFFALHQRRGAIKQAKVHHVKCHEFTATFFPQPTFCSVCHEFVWGLNKQGYQCRQCNAAIHKKCIDKVIAKCTGSAINSRETMFHKERFKIDMPHRFKVYNYKSPTFCEHCGTLLWGLARQGLKCDACGMNVHHRCQTKVANLCGINQKLMAEALAMIESTQQARCLRDTEQIFREGPVEIGLPCSIKNEARPPCLPTPGKREPQGISWESPLDEVDKMCHLPEPELNKERPSLQIKLKIEDFILHKMLGKGSFGKVFLAEFKKTNQFFAIKALKKDVVLMDDDVECTMVEKRVLSLAWEHPFLTHMFCTFQTKENLFFVMEYLNGGDLMYHIQSCHKFDLSRATFYAAEIILGLQFLHSKGIVYRDLKLDNILLDKDGHIKIADFGMCKENMLGDAKTNTFCGTPDYIAPEILLGQKYNHSVDWWSFGVLLYEMLIGQSPFHGQDEEELFHSIRMDNPFYPRWLEKEAKDLLVKLFVREPEKRLGVRGDIRQHPLFREINWEELERKEIDPPFRPKVKSPFDCSNFDKEFLNEKPRLSFADRALINSMDQNMFRNFSFMNPGMERLIS
On to B1, for which the Kd came to 200 nM.
